Experimental findings from patent publication US20170022269A1 are described below.

Assay [1] deals with Aβ(1-42) fibrils (human) (UniProt P05067). Briefly: dot blot densitometry, antibody 0.2 µg/ml; column Aβ(1-42) fibril.
The target of assay [2] is Aβ(1-40) monomer (human). Briefly: dot blot densitometry, antibody 0.2 µg/ml; column Aβ(1-40) monomer, 0.1% NaOH.
Assay [3] deals with Aβ(1-42) fibrils (human) (UniProt P05067). In words: co-pelleting with Aβ(1-42) fibrils, SDS-PAGE, optical density of the heavy chain in pellet / (pellet + supernatant).

Sequence of Aβ(1-42) fibrils (human) (P05067 672-713): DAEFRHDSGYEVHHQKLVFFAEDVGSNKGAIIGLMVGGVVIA
Sequence of Aβ(1-40) monomer (human) (peptide, as listed by the source): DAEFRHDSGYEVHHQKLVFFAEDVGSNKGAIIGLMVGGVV

B1: monoclonal antibody 3B10 (antibody, part only; not given: light chain, V domains shown, part only)
VH: QVQLQQSGPELVKPGASVKMSCKASGYTFTDYVIHWVKQKPGQGLEWIGYINPYNDGTQYNEKFKGKATLTSDKSSSTVYMELSSLTSEDSTVYYCTVEGGTWDGYFDVWGTGTTVTVSS
Turning to B1, the relation between recognition of Aβ(20-42) globulomer and the respective Aβ form in assay [1] and in assay [2] was above 10000 in each case. In addition, the antibody bound to fibrils [%] in assay [3] is 5%.
